Patent US20250135039A1, “INHIBITOR-RESISTANT MGMT MODIFICATIONS AND MODIFICATION OF MGMT-ENCODING NUCLEIC ACIDS” (Ensoma, Inc., priority 2022, published 2025)

Tested on: U251 human glioblastoma cell line
Experiment: in vitro FM-HCR assay of MGMT activity (mPlum O^6MeG reporter plasmid)
Type: cell-based
Conditions: for Reporter expression (%) mean, O^6BG: 100 μM O^6BG; for Reporter expression (%) mean, O^6BG / Reporter expression (%) mean, DMSO: U251 cells, flow cytometry 24 h after transfection, damaged/undamaged reporter, inversely related to MGMT activity; for Reporter expression (%) mean, DMSO: 0.1% DMSO; for MGMT activity (a.u.) DMSO / MGMT activity (% of WT) DMSO: DMSO condition; for MGMT activity (a.u.) DMSO / MGMT activity (a.u.) O^6BG: determined from percent reporter expression; for MGMT activity (% of WT) DMSO / MGMT activity (% of WT) O^6BG: relative to wild-type MGMT in same condition; for Relative MGMT activity (%): MGMT activity (a.u.) in O^6BG divided by DMSO x 100, higher values indicate resistance; for MGMT activity (a.u.) O^6BG / MGMT activity (% of WT) O^6BG: O^6BG condition; for Ratio percent reporter expression (O^6BG/DMSO): lower values indicate resistance to O^6BG; for O^6BG resistance relative to WT (%): percentage difference in relative MGMT activity between variant and wild-type MGMT
From the text: The present Example includes, in part, an in vitro fluorescence multiplex host cell reactivation (FM-HCR) assay in which a reporter plasmid with O^6MeG-containing oligonucleotides is used. The oligonucleotides induce transcription errors that lead to expression of fluorescent mPlum protein. Functional MGMT will repair the O^6MeG sites and reduce mPlum expression. This represents a rapid and validated assay system to assess intracellular activity of MGMT. Further description of certain such assays is found in Nagel (2014 PNAS USA 111 (18): E1823-32, which is incorporated herein by reference.
The present Example uses an in vitro FM-HCR assay in which a reporter plasmid with 0° MeG-containing oligonucleotides is used to assay MGMT activity in cells. The O^6MeG-containing oligonucleotides induce transcription errors that lead to expression of fluorescent mPlum protein. Functional MGMT will repair the O'MeG sites and reduce mPlum expression. This represents a rapid and validated assay system to assess intracellular activity of MGMT. Further description of certain such assays is found in Nagel et al., 2014 PNAS USA 111 (18): E1823-32 and Piett et al., 2021 Nat. Protoc. 16 (9): 4265-4298, each of which is incorporated herein by reference.
The in vitro FM-HCR assay was performed using the U251 human glioblastoma cell line. The cells were cultured in DMEM with 10% FBS and passaged every three days.
To express MGMT variants in the cells, plasmids encoding each MGMT variant were designed and generated by either de novo synthesis or cloning into the pTwist EF1 Alpha Puro vector at the HindII-BamHI multiple cloning site. The pTwist EF1 Alpha Puro plasmid vector drives expression of the MGMT transcript from a human EF1-alpha promoter including intron 1 and an SV40 polyadenylation signal. Plasmids encoding the MGMT variants were purified using standard molecular biology techniques from E. coli with low endotoxins. Plasmids encoding wild-type MGMT or O^6BG-resistant MGMT^P140K were also designed and generated for use as controls.
To perform the in vitro FM-HCR assay, U251 cells were seeded in 12-well plates at a density of 50,000 cells per well in 1 mL culture media. The following day, the media was changed to 1 mL of culture media containing O^6BG (100 μM O^6BG and 0.1% DMSO final) or 0.1% DMSO; and the cells were transfected with 1,000 ng of a plasmid cocktail using Lipofectamine 3000 (ThermoFisher Scientific) at 1.8 μL Lipofectamine 3000 Reagent and 2 μL P3000 reagent in Opti-MEM medium (ThermoFisher Scientific). […] For the “undamaged” condition, the plasmid cocktail replaced the mPlum O^6MeG reporter plasmid with 100 ng of a plasmid expressing mPlum. The plasmid encoding BFP was used as an internal transfection control. For transfections where no MGMT encoding plasmid is used (no pMGMT), 250 ng of additional carrier plasmid was used to maintain a total DNA amount of 1,000 ng in each transfection. Four hours after transfection, the transfection medium was changed.
All transfected cells were analyzed by flow cytometry at 24-hours after transfection. Data was analyzed as previously described in Nagel et al., 2014 PNAS USA 111 (18): E1823-32 and Piett et al., 2021 Nat. Protoc. 16 (9): 4265-4298. For each condition, normalized reporter expression was determined by taking the product of the mPlum-positive cell count and the mean mPlum fluorescence intensity in mPlum-positive cells and dividing it by the product of the BFP-positive cell count and the mean BFP fluorescence intensity in BFP-positive cells. Next, for each MGMT variant, the percent reporter expression was determined by taking the normalized reporter expression in the “damaged” condition and dividing it by the normalized reporter expression in the “undamaged” condition, and then multiplying by 100 to obtain a percent value. […]

| Molecule | Reporter expression (%) mean, O^6BG [%] | Reporter expression (%) mean, DMSO [%] | MGMT activity (a.u.) DMSO [a.u.] | MGMT activity (% of WT) DMSO | Relative MGMT activity (%) | MGMT activity (a.u.) O^6BG [a.u.] | MGMT activity (% of WT) O^6BG | Ratio percent reporter expression (O^6BG/DMSO) | O^6BG resistance relative to WT (%) |
| --- | --- | --- | --- | --- | --- | --- | --- | --- | --- |
| P140K: O^6BG-resistant MGMT polypeptide with K at position 140, SEQ ID NO: 8; used as control (protein, REGION 1..207: note = Synthetic: MGMTP140K, used as control) MDKDCEMKRTTLDSPLGKLELSGCEQGLHEIKLLGKGTSAADAVEVPAPAAVLGGPEPLMQCTAWLNAYFHQPEAIEEFPVPALHHPVFQQESFTRQVLWKLLKVVKFGEVISYQQLAALAGNPKAARAVGGAMRGNPVKILIPCHRVVCSSGAVGNYSGGLAVKEWLLAHEGHRLGKPGLGGSSGLAGAWLKGAGATSGSPPAGRN | 34.8 | 30.2 | 3.31 | 61.3 % of WT | 86.8 | 2.87 | 201.1 % of WT | 1.15 | 228.4 |
| L33R: MGMT polypeptide with mutation L33R (protein) MDKDCEMKRTTLDSPLGKLELSGCEQGLHEIKRLGKGTSAADAVEVPAPAAVLGGPEPLMQCTAWLNAYFHQPEAIEEFPVPALHHPVFQQESFTRQVLWKLLKVVKFGEVISYQQLAALAGNPKAARAVGGAMRGNPVPILIPCHRVVCSSGAVGNYSGGLAVKEWLLAHEGHRLGKPGLGGSSGLAGAWLKGAGATSGSPPAGRN | 58.3 | 15.0 | 6.67 | 123.3 % of WT | 25.7 | 1.71 | 120.0 % of WT | 3.89 | −2.7 |
| M134F: MGMT polypeptide with mutation M134F (protein) MDKDCEMKRTTLDSPLGKLELSGCEQGLHEIKLLGKGTSAADAVEVPAPAAVLGGPEPLMQCTAWLNAYFHQPEAIEEFPVPALHHPVFQQESFTRQVLWKLLKVVKFGEVISYQQLAALAGNPKAARAVGGAFRGNPVPILIPCHRVVCSSGAVGNYSGGLAVKEWLLAHEGHRLGKPGLGGSSGLAGAWLKGAGATSGSPPAGRN | 97.0 | 51.3 | 1.95 | 36.0 % of WT | 52.9 | 1.03 | 72.2 % of WT | 1.89 | 100.2 |
| L33Y: MGMT polypeptide with mutation L33Y (protein) MDKDCEMKRTTLDSPLGKLELSGCEQGLHEIKYLGKGTSAADAVEVPAPAAVLGGPEPLMQCTAWLNAYFHQPEAIEEFPVPALHHPVFQQESFTRQVLWKLLKVVKFGEVISYQQLAALAGNPKAARAVGGAMRGNPVPILIPCHRVVCSSGAVGNYSGGLAVKEWLLAHEGHRLGKPGLGGSSGLAGAWLKGAGATSGSPPAGRN | 77.3 | 17.0 | 5.88 | 108.8 % of WT | 22.0 | 1.29 | 90.6 % of WT | 4.54 | −16.7 |
| L33W: MGMT polypeptide with mutation L33W (protein) MDKDCEMKRTTLDSPLGKLELSGCEQGLHEIKWLGKGTSAADAVEVPAPAAVLGGPEPLMQCTAWLNAYFHQPEAIEEFPVPALHHPVFQQESFTRQVLWKLLKVVKFGEVISYQQLAALAGNPKAARAVGGAMRGNPVPILIPCHRVVCSSGAVGNYSGGLAVKEWLLAHEGHRLGKPGLGGSSGLAGAWLKGAGATSGSPPAGRN | 57.7 | 14.3 | 6.98 | 129.1 % of WT | 24.9 | 1.73 | 121.4 % of WT | 4.02 | −6.0 |
| L33K: MGMT polypeptide with mutation L33K (protein) MDKDCEMKRTTLDSPLGKLELSGCEQGLHEIKKLGKGTSAADAVEVPAPAAVLGGPEPLMQCTAWLNAYFHQPEAIEEFPVPALHHPVFQQESFTRQVLWKLLKVVKFGEVISYQQLAALAGNPKAARAVGGAMRGNPVPILIPCHRVVCSSGAVGNYSGGLAVKEWLLAHEGHRLGKPGLGGSSGLAGAWLKGAGATSGSPPAGRN | 62.3 | 16.0 | 6.25 | 115.6 % of WT | 25.7 | 1.61 | 112.4 % of WT | 3.89 | −2.7 |
| L33P: MGMT polypeptide with mutation L33P (protein) MDKDCEMKRTTLDSPLGKLELSGCEQGLHEIKPLGKGTSAADAVEVPAPAAVLGGPEPLMQCTAWLNAYFHQPEAIEEFPVPALHHPVFQQESFTRQVLWKLLKVVKFGEVISYQQLAALAGNPKAARAVGGAMRGNPVPILIPCHRVVCSSGAVGNYSGGLAVKEWLLAHEGHRLGKPGLGGSSGLAGAWLKGAGATSGSPPAGRN | 54.7 | 12.3 | 8.11 | 150.0 % of WT | 22.6 | 1.83 | 128.0 % of WT | 4.43 | −14.6 |
| L33F: MGMT polypeptide with mutation L33F (protein) MDKDCEMKRTTLDSPLGKLELSGCEQGLHEIKFLGKGTSAADAVEVPAPAAVLGGPEPLMQCTAWLNAYFHQPEAIEEFPVPALHHPVFQQESFTRQVLWKLLKVVKFGEVISYQQLAALAGNPKAARAVGGAMRGNPVPILIPCHRVVCSSGAVGNYSGGLAVKEWLLAHEGHRLGKPGLGGSSGLAGAWLKGAGATSGSPPAGRN | 77.0 | 14.3 | 6.98 | 129.1 % of WT | 18.6 | 1.30 | 90.9 % of WT | 5.37 | −29.6 |
